From PMC11767649, “Two Cysteines in Raf Kinase Inhibitor Protein Make Differential Contributions to Structural Dynamics In Vitro” (Molecules, 2025)

Assays:
[1] = molecular target: the molecule itself; experiment: non-reducing SDS-PAGE; purified rhRKIP in sample loading buffer without β-mercaptoethanol or boiling; Coomassie Brilliant Blue staining or anti-His immunoblot
[2] = molecular target: the molecule itself; experiment: LC Q-TOF mass spectrometry; purified rhRKIP WT and mutant proteins in buffer at pH 7.4; peaks around 22 kDa (monomer) and 44 kDa (dimer)

B1: rhRKIP C133S mutant, histidine-tagged (natural protein, human, UniProt P30086 1-187, looked up)
chain: MPVDLSKWSGPLSLQEVDEQPQHPLHVTYAGAAVDELGKVLTPTQVKNRPTSISWDGLDSGKLYTLVLTDPDAPSRKDPKYREWHHFLVVNMKGNDISSGTVLSDYVGSGPPKGTGLHRYVWLVYEQDRPLKSDEPILSNRSGDHRGKFKVASFRKKYELRAPVAGTCYQAEWDDYVPKLYEQLSGK
notes: human RKIP (PEBP1), cDNA GenBank NM_002567 in pET28B+, site-directed mutant; Same construct as m1 with the point mutation; source: E. coli BL21(DE3), purified (Ni-NTA)
stoichiometry N [1]: 2

B2: rhRKIP C168A mutant, histidine-tagged (natural protein, human, UniProt P30086 1-187, looked up)
chain: MPVDLSKWSGPLSLQEVDEQPQHPLHVTYAGAAVDELGKVLTPTQVKNRPTSISWDGLDSGKLYTLVLTDPDAPSRKDPKYREWHHFLVVNMKGNDISSGTVLSDYVGSGPPKGTGLHRYVWLVYEQDRPLKCDEPILSNRSGDHRGKFKVASFRKKYELRAPVAGTAYQAEWDDYVPKLYEQLSGK
notes: as for B1
stoichiometry N [2]: 2

B3: rhRKIP Ser153 to alanine mutant, histidine-tagged (natural protein, human, UniProt P30086 1-187, looked up)
chain: MPVDLSKWSGPLSLQEVDEQPQHPLHVTYAGAAVDELGKVLTPTQVKNRPTSISWDGLDSGKLYTLVLTDPDAPSRKDPKYREWHHFLVVNMKGNDISSGTVLSDYVGSGPPKGTGLHRYVWLVYEQDRPLKCDEPILSNRSGDHRGKFKVAAFRKKYELRAPVAGTCYQAEWDDYVPKLYEQLSGK
notes: human RKIP (PEBP1), cDNA GenBank NM_002567 in pET28B+, site-directed mutant; Same construct as m1 with the point mutation; also called S153A; source: E. coli BL21(DE3), purified (Ni-NTA)
stoichiometry N [1]: 2

B4: rhRKIP C168S mutant, histidine-tagged (natural protein, human, UniProt P30086 1-187, looked up)
chain: MPVDLSKWSGPLSLQEVDEQPQHPLHVTYAGAAVDELGKVLTPTQVKNRPTSISWDGLDSGKLYTLVLTDPDAPSRKDPKYREWHHFLVVNMKGNDISSGTVLSDYVGSGPPKGTGLHRYVWLVYEQDRPLKCDEPILSNRSGDHRGKFKVASFRKKYELRAPVAGTSYQAEWDDYVPKLYEQLSGK
notes: as for B1
stoichiometry N [1]: 2

B5: rhRKIP Ser153 to aspartate mutant, histidine-tagged (natural protein, human, UniProt P30086 1-187, looked up)
chain: MPVDLSKWSGPLSLQEVDEQPQHPLHVTYAGAAVDELGKVLTPTQVKNRPTSISWDGLDSGKLYTLVLTDPDAPSRKDPKYREWHHFLVVNMKGNDISSGTVLSDYVGSGPPKGTGLHRYVWLVYEQDRPLKCDEPILSNRSGDHRGKFKVADFRKKYELRAPVAGTCYQAEWDDYVPKLYEQLSGK
notes: human RKIP (PEBP1), cDNA GenBank NM_002567 in pET28B+, site-directed mutant; Same construct as m1 with the point mutation; also called S153D; source: E. coli BL21(DE3), purified (Ni-NTA)
stoichiometry N [1]: 2

B6: rhRKIP Ser153 to glutamate mutant, histidine-tagged (natural protein, human, UniProt P30086 1-187, looked up)
chain: MPVDLSKWSGPLSLQEVDEQPQHPLHVTYAGAAVDELGKVLTPTQVKNRPTSISWDGLDSGKLYTLVLTDPDAPSRKDPKYREWHHFLVVNMKGNDISSGTVLSDYVGSGPPKGTGLHRYVWLVYEQDRPLKCDEPILSNRSGDHRGKFKVAEFRKKYELRAPVAGTCYQAEWDDYVPKLYEQLSGK
notes: human RKIP (PEBP1), cDNA GenBank NM_002567 in pET28B+, site-directed mutant; Same construct as m1 with the point mutation; also called S153E; source: E. coli BL21(DE3), purified (Ni-NTA)
stoichiometry N [1]: 2
